Experimental data: US20080311034A1 (published 2008)
Blank lines part the entries; values can stand above or below the binder they belong to.

Tests used:
[1] = biological target: T1, recombinant human His-tagged FcγRIIIa (extracellular domain made at Centocor) (human, UniProt P08637 17-208); test: ELISA, His-tagged FcγRIIIa captured on HisGrab plate
T1 construct: extracellular domain; also called CD16a; recombinant, soluble, human FcγRIIIa
Method: (§1) FcγRIIIa (CD16a) ELISA—A human FcγRIIIa binding assay was done in ELISA format similar to the assay for FcγRI above. 50 μl of a 2 μg/ml solution of recombinant human His-tagged FcγRIIIa (extracellular domain made at Centocor) in ELISA buffer (PBS, 4 mg/ml BSA, 0.01% Tween-20) was added to each well of HisGrab 96 well plates (Pierce #15142) (Powers G., Notebook 10378, 19-23). The plate was incubated for 3 hours at room temp. The plates were blocked with 200 μl of Starting Block (Pierce #15142) for 30 min, and then washed 3× with 300 μl of wash buffer (PBS, 0.01% Tween-20) on a plate washer. Serial dilutions of the CNTO 860 test samples were made in Starting Block buffer and 50 μl per well of each titration were added in duplicate to the FcγRIIIa-coated plates. The plates were incubated for 1 hour. The plates were washed 3× with 300 μl of wash buffer on a plate washer. 50 μl of a 1:10,000 dilution of HRP-labeled goat F(ab′)2 anti-human IgG F(ab′)2 (Jackson Immunoresearch # 109-036-097) in Starting Block buffer was added to each well. The plates were incubated for 30 minutes. The plates were washed 3× with 300 μl of wash buffer on the plate washer. 50 μl per well TMB substrate (RDI #RDI-TMBSU-1L) was added to each well and developed for 3-5 minutes. The reaction was stopped by adding 100 μl 10.2 N sulfuric acid. The plates were read at OD450 on an Envision plate reader. Antibody concentration vs OD450 values were graphed for each CNTO 860 variant and the antibody concentration needed to achieve an OD450 reading of 0.14 established by interpolation within each data curve.

[2] = biological target: T2, recombinant polyhistidine tagged mouse FcγRII (R&D Systems) (mouse, UniProt P08101 40-217, limits assumed); test: ELISA, His-tagged mouse receptor captured on copper-coated plate
T2 construct: Bought; also called FcRII
T2 sequence (looked up): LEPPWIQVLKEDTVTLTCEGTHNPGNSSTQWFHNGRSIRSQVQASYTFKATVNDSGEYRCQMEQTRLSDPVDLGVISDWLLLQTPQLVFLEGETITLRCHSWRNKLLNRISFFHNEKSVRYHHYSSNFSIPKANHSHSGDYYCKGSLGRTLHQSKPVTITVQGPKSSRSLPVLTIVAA
Method: (§2) Commercially-available recombinant polyhistidine tagged mouse FcγRI, FcγRII, FcγRIII, and FcγRIV (R&D Systems) were diluted to 1 μg/ml in PBS and 100 μl/well was captured onto copper-coated plates (Pierce) overnight at 4° C. Plates were washed three times with wash buffer (0.15M NaCl, 0.02% Tween 20). Non-specific binding was blocked using 200 μl/well SuperBlock (Pierce) for 15 minutes at room temperature. Plates were washed three times as above. […] Plates were washed three times as above to remove unbound mAb. CNTO 860 variants that bound to plated receptors were detected using 100 μl/well HRP-labeled goat F(ab′)₂ anti-human IgG F(ab′)₂ (Jackson ImmunoResearch) diluted 1:5,000 in PBS incubated at room temperature for 1 hour. Plates were washed five times using wash buffer as above, and developed using 100 μl/well TMB Stable Stop substrate (Fitzgerald Industries) stopped with 0.5M HCl. Absorbance was detected at 450 nm.
(§3) All binding assays were in an ELISA format, with recombinant soluble receptor captured on coated EIA plates.

[3] = biological target: T3, recombinant polyhistidine tagged mouse FcγRI (R&D Systems) (mouse, UniProt P26151 25-297); test: as above
T3 construct: Bought; also called murine FcγRI
T3 sequence (looked up): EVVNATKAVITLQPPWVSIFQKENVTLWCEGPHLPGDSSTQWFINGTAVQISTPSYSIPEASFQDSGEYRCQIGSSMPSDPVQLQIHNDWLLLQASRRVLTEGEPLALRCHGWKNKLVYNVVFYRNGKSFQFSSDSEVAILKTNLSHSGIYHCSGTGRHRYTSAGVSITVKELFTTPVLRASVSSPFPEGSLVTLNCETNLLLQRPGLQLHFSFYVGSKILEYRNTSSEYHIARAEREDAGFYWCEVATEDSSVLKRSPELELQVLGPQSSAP
Method: as §2, §3

[4] = biological target: T4, recombinant polyhistidine tagged mouse FcγRIII (R&D Systems) (mouse, UniProt P08508 31-215); test: as above
T4 construct: Bought
T4 sequence (looked up): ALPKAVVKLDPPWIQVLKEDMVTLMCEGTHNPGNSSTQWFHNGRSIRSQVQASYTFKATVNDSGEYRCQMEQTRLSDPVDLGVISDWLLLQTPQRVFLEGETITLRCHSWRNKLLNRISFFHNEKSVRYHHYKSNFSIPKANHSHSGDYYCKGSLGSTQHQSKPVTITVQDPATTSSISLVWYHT
Method: as §2, §3

[5] = biological target: T5, recombinant polyhistidine tagged mouse FcγRIV (R&D Systems) (mouse, UniProt A0A0B4J1G0 21-203); test: as above
T5 construct: Bought
T5 sequence: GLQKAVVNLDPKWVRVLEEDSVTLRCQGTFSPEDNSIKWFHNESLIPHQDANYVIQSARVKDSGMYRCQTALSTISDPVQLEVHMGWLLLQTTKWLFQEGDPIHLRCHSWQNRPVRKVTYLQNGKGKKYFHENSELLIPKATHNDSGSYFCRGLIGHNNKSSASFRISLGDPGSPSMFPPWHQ
Method: as §2, §3

[6] = biological target: T6, FcγRIIIa on NK cells of human PBMC (human, UniProt P08637 17-254); test: cell-based or functional assay
T6 sequence (P08637 17-254): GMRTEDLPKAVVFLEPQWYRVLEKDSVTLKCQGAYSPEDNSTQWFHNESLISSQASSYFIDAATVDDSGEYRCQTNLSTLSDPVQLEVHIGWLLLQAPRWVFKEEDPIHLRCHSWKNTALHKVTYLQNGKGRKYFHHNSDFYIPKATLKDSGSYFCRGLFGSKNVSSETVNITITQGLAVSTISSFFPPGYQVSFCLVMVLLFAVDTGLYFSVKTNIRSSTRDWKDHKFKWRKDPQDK

[7] = biological target: T7, recombinant human FcγRIIb (R&D Systems #1875-CD-050) (human, UniProt P31994 46-217, limits assumed); test: AlphaScreen
T7 construct: Bought; also called CD32b; recombinant, soluble, human FcγRIIb
T7 sequence (looked up): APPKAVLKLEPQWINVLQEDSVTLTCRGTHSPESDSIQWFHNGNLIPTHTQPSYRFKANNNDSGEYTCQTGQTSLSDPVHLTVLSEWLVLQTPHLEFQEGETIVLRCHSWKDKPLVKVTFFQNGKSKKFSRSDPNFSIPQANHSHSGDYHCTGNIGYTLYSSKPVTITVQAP
Method: (§4) FcγRIIa (CD32a) AlphaScreen—Nickel acceptor beads (Perkin Elmer #6760619C) were diluted 1:50 in assay buffer (PBS, pH 7.4, 4 mg/ml BSA, 0.01% Tween-20), and 27.5 μl were added to each well of a Nunc V-bottom polypropylene plate (VWR # 62409-108) (Powers G., Notebook 9006, pp. 169-175, 182-185). A 2.0 μg/ml solution of recombinant human His-tagged FcγRIIa (R&D Systems #1330-CD-050) was prepared in assay buffer and 27.5 μl added to each well of a separate Nunc V bottom polypropylene plate. Titrations of test Abs were prepared in the Nunc V bottom polypropylene plate starting at 30 μg/ml. A 2 μg/ml solution of biotinylated goat F(ab′)₂ anti-human IgG F(ab′)₂ (Jackson Immunoresearch #109-066-097) was prepared in assay buffer and 27.5 μl added to each well of another Nunc V bottom polypropylene plate. A 1:50 dilution of streptavidin donor beads (PerkinElmer # 6760002) was prepared in assay buffer and 27.5 μl added to each well of another Nunc V bottom polypropylene plate. A volume of 5 μl of each reagent was added to the corresponding quadrants of a low-volume, non-binding white 384-well plate (Corning # 3673) in the following order: acceptor beads, FcγRIIa, test Ab, biotinylated anti-human IgG F(ab′)₂, and streptavidin donor beads. The plates were incubated for 30 minutes with shaking and the O.D.s determined using an Envision plate reader.
(§5) FcγRIIb (CD32b) AlphaScreen—The assay was performed as described above for FcγRIIa except that FcγRIIa was replaced with FcγRIIb (R&D Systems #1875-CD-050).

[8] = biological target: T8, recombinant human His-tagged FcγRI (extracellular domain, R&D Systems #1257-FC-050) (human, UniProt P12314 16-292); test: ELISA
T8 construct: extracellular domain; Bought; also called CD64; recombinant, soluble, human FcγRI
T8 sequence (P12314 16-292): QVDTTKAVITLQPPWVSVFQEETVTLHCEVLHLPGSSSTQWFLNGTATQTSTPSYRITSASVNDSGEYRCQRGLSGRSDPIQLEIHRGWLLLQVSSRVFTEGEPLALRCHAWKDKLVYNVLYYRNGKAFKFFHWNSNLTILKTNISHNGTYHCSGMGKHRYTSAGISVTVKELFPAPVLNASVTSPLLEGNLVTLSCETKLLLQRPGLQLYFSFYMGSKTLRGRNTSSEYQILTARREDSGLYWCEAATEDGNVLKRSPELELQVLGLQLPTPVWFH
Method: FcγRI (CD64) ELISA —50 μl of a 1 μg/ml solution of recombinant human His-tagged FcγRI (extracellular domain, R&D Systems #1257-FC-050) in ELISA buffer (PBS, pH 7.4, 4 mg/ml BSA, 0.01% Tween-20) was added to each well of HisGrab 96 well plates (Pierce #15142) (Powers G., Notebook 9006, pp. 166-168, 180-181). The plate was incubated with shaking for 3 hours. The plates were washed 3× with 300 μl of wash buffer (PBS, 0.01% Tween-20) on a plate washer. Serial dilutions of the CNTO860 antibody Fc-variant samples were made in ELISA buffer and 50 μl per well of each titration were added in duplicate to the FcγRI-coated plates. The plates were incubated with shaking for 1 hour. The plates were washed 3× with 300 μl of wash buffer on a plate washer. 50 μl of a 1:10,000 dilution of HRP-labeled goat F(ab′)₂ anti-human IgG F(ab′)₂ (Jackson Immunoresearch # 109-036-097) in ELISA buffer was added to each well. The plates were incubated with shaking for 30 minutes. The plates were washed 3× with 300 μl of wash buffer on the plate washer. 50 μl per well TMB substrate (RDI #RDI-TMBSU-1L) was added to each well and developed for 5 minutes. The reaction was stopped by adding 100 μl 0.2 N sulfuric acid. The plates were read at OD450 on an Envision plate reader.
as §1, with “minutes.” for “minutes. The plates were washed 3× with 300 μl of wash buffer on the plate washer. 50 μl per well TMB substrate (RDI #RDI-TMBSU-1L) was added to each well and developed for 3-5 minutes. The reaction was stopped by adding 100 μl 10.2 N sulfuric acid. The plates were read at OD450 on an Envision plate reader. Antibody concentration vs OD450 values were graphed for each CNTO 860 variant and the antibody concentration needed to achieve an OD450 reading of 0.14 established by interpolation within each data curve.”

[9] = biological target: T6, FcγRIIIa on NK cells of human PBMC; test: cell-based or functional assay; remark: listed apart in the source
[10] = biological target: T9, recombinant human His-tagged FcγRIIa (R&D Systems #1330-CD-050) (human, UniProt P12318 36-218, limits assumed); test: AlphaScreen
T9 construct: Bought; also called CD32a; recombinant, soluble, human FcγRIIa
T9 sequence (looked up): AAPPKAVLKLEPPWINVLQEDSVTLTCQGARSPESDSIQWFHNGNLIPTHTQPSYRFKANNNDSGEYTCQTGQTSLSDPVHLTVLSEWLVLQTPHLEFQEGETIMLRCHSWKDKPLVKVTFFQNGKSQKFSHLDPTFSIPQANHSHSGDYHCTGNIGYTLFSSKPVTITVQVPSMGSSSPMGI
Method: as §4, §5

T1 sequence (P08637 17-208): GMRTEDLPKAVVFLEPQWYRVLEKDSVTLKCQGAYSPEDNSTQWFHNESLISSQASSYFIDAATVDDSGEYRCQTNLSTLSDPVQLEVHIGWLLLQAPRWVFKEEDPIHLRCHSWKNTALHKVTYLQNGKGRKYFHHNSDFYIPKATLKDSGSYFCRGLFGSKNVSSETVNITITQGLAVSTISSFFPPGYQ

concentration (ng/ml) required for an O.D. value of 0.14 [1]: 900 ng/mL | ECOD1 (concentration required for an O.D. value of 1.0) [2]: 1700 ng/mL | ECOD1 (concentration required for an O.D. value of 1.0) [3]: 25800 ng/mL | ECOD1 (concentration required for an O.D. value of 1.0) [4]: 2000 ng/mL | ECOD1 (concentration required for an O.D. value of 1.0) [5]: 8 ng/mL | EC25 (ng/ml), ADCC of HCT116 cells by human PBMC [6]: 1 ng/mL
B1: CHO-CNTO 860 I332E/V264I (antibody, human IgG1, kappa)
heavy: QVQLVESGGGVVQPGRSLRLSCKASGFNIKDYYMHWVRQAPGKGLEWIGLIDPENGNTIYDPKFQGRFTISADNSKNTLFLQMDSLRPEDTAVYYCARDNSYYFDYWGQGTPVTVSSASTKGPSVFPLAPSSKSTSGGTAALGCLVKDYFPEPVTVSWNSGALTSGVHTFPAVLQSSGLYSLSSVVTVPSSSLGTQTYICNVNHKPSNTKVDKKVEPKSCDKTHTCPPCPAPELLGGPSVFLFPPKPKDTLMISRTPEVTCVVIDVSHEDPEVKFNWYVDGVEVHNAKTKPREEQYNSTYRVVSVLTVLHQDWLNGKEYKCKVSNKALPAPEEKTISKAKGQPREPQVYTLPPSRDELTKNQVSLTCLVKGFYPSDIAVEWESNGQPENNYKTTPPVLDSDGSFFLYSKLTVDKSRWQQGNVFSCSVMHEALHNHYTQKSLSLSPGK
light: DIQMTQSPSSLSASVGDRVTITCKASQDIRKYLNWYQQKPGKAPKLLIYYATSLADGVPSRFSGSGSGTDYTFTISSLQPEDIATYYCLQHGESPYTFGQGTKLEITRTVAAPSVFIFPPSDEQLKSGTASVVCLLNNFYPREAKVQWKVDNALQSGNSQESVTEQDSKDSTYSLSSTLTLSKADYEKHKVYACEVTHQGLSSPVTKSFNRGEC
modifications: Heavy chain N297 carries the CHO-type N-linked glycan (about 95% fucosylated); not carried by the letters.
notes: IgG1/kappa Fc variant; transiently expressed in CHO cells (p4187/p4146); EU numbering; also called V264I/I332E (CHO cell-derived); copies: 2 + 2

fold change in binding against WT (enhanced) [7]: ~6 fold
B2: CNTO 860 S239D/I332E (antibody, human IgG1, kappa)
heavy: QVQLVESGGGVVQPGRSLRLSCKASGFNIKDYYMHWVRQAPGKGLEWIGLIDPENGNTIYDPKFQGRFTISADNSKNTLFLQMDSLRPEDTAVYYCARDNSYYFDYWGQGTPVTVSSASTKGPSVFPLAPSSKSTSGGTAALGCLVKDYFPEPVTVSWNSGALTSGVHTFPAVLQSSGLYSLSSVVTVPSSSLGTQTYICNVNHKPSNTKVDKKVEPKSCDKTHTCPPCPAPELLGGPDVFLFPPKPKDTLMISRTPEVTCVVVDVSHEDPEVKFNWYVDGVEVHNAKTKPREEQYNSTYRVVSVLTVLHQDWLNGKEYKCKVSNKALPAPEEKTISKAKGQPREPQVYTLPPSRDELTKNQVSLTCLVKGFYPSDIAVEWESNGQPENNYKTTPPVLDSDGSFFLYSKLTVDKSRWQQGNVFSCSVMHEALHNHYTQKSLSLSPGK
light: B1 light
modifications: N-linked glycan at Asn297 of the heavy chain (fucose content depends on host cell, CHO or YB2/0); not carried by the letters
notes: also called S239D/I332E double mutant; copies: 2 + 2

fold change in binding against WT (enhanced) [8]: 2 fold
B3: CNTO 860 I332E (antibody)
heavy: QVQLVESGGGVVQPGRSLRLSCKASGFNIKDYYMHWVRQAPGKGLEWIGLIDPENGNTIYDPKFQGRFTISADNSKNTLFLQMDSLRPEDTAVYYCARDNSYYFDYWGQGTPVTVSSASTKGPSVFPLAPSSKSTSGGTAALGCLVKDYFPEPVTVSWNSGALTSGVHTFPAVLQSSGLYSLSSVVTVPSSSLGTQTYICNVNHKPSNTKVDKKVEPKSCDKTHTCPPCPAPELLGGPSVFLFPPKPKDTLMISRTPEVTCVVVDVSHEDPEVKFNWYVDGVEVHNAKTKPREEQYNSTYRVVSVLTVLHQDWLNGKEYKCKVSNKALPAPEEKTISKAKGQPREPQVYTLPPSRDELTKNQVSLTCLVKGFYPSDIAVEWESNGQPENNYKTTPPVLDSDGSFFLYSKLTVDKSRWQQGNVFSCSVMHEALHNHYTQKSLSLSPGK
light: B1 light
modifications: N-linked glycan at heavy chain Asn297 (host cell not specified in these sentences); not carried by the letters
notes: also called I332E variant; I332E single mutant; copies: 2 + 2

fold change in binding against WT (reduced) [7]: 500 fold
B4: CNTO 860 A330I (antibody)
heavy: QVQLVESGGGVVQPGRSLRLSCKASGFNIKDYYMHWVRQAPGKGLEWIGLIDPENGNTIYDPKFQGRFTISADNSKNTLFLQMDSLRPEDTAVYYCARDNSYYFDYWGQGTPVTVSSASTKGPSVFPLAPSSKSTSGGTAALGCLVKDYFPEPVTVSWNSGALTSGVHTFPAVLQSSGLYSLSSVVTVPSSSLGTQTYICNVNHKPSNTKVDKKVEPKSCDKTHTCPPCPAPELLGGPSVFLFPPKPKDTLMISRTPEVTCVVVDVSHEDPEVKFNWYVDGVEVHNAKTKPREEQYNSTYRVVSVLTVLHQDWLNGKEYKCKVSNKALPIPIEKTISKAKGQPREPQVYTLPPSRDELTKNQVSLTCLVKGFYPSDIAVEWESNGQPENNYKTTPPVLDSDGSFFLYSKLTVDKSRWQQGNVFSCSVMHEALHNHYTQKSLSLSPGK
light: B1 light
modifications: N-linked glycan at Asn297 of the heavy chain (fucose content depends on host cell, CHO or YB2/0); not carried by the letters
notes: also called A330I variant; A330I single mutant; copies: 2 + 2

fold activity in the ADCC assays [9]: ~10 fold | fold higher concentration than WT to give an OD signal of 200,000 [10]: ~20 fold
B5: CNTO 860 A330I/I332E (antibody, human IgG1, kappa)
heavy: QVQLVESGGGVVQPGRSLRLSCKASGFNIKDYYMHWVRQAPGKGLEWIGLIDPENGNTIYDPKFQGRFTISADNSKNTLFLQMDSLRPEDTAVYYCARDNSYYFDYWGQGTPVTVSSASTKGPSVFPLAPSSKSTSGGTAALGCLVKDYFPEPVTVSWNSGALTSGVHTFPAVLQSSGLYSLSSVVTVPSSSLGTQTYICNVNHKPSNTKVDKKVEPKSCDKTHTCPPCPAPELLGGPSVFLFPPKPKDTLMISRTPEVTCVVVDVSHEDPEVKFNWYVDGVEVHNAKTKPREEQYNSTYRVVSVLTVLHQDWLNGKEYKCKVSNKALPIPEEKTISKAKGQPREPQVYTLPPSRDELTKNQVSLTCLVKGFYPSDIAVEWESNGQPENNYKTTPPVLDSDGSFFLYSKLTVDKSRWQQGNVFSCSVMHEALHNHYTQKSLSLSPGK
light: B1 light
modifications: N-linked glycan at Asn297 of the heavy chain (fucose content depends on host cell, CHO or YB2/0); not carried by the letters
notes: also called A330I/I332E double mutant; A330I/I332E variant; copies: 2 + 2
